According to patent US20230183352A1 (published 2023):

molecular target: T1, Claudin 18.2 (CLDN18.2), expressed on CHOS-CLDN 18.2 / HEK293-CLDN 18.2 / HCC827-CLDN 18.2 cells (human, UniProt P56856 1-261); test: cell ELISA

EC50 [µg/mL]	Binder
0.187	QP14581453 (antibody, V domains shown) VH: QVQLVQSGAEVKKPGASVKVSCKASGYTFTNYFVHWVKQAPGQGLEWIGYINPYNDDTKYNEKFKGKATLTRDTSTSTVYMELSSLRSEDTAVYYCLSLRFFAYWGQGTLVTVSS VL: DIVMTQSPDSLAVSLGERATISCKSSQSLLNSGNQKNYLTWYQQKPGQAPKLLIYWASTRESGVPDRFSGSGSGTDFTLTISSLQAEDVAVYYCQNDYSYPLTFGGGTKVEIKR
0.213	QP14561454 (antibody, V domains shown) VH: QVQLVQSGAEVKKPGASVKVSCKASGYTFTNYFVHWVRQAPGQGLEWMGYINPYNDDTKYNEKFKGRVTMTRDTSTSTVYMELSSLRSEDTAVYYCLSLRFFAYWGQGTLVTVSS VL: DIVMTQSPDSLAVSLGERATISCKSSQSLLNSGNQKNYLTWYQQKPGQAPKLLIYWASTRESGVPDRFSGSGSGTDFTLTISSVQAEDVAVYFCQNDYSYPLTFGGGTKVEIKR
0.21	QP14581454 (antibody, V domains shown) VH: QVQLVQSGAEVKKPGASVKVSCKASGYTFTNYFVHWVKQAPGQGLEWIGYINPYNDDTKYNEKFKGKATLTRDTSTSTVYMELSSLRSEDTAVYYCLSLRFFAYWGQGTLVTVSS VL: DIVMTQSPDSLAVSLGERATISCKSSQSLLNSGNQKNYLTWYQQKPGQAPKLLIYWASTRESGVPDRFSGSGSGTDFTLTISSVQAEDVAVYFCQNDYSYPLTFGGGTKVEIKR
0.944	QP201202 (antibody, V domains shown) VH: EVQLQQSGPELVKPGASVKMSCKASGYTFTNYFVHWVKQKPGQGLEWIGYINPYNDDTKYNEKFKGKATLTSDKSSSTAYMDLSSLTSEDSAVYYCLSLRFFAYWGQGTLVTVSA VL: DIVMTQSPSSLTVTAGEKVTMSCKSSQSLLNSGNQKNYLTWYQQKPGQAPKLLIYWASTRESGVPDRFIGSGSGTDFTLTISHVQAEDLAVYFCQNDYSYPLTFGAGTNLELK
0.132	QP14431442 (antibody, V domains shown) VH: QVQLVQSGAEVKKPGASVKVSCKASGYAFSSYWMNWVRQAPGQGLEWMGQIYPGNGDTTYNGKFKGRVTMTRDTSTSTVYMELSSLRSEDTAVYYCARFVKGNAMDYWGQGTLVTVSS VL: DIVMTQSPDSLAVSLGERATISCKSSQSLLNSGNQKNYLTWYQQKPGQPPKMLIYWASTRESGVPDRFSGSGSGIDFTLTISSVQAEDVAVYYCQNAYSYPFTFGQGTKLEIK
0.357	QP14561453 (antibody, V domains shown) VH: QVQLVQSGAEVKKPGASVKVSCKASGYTFTNYFVHWVRQAPGQGLEWMGYINPYNDDTKYNEKFKGRVTMTRDTSTSTVYMELSSLRSEDTAVYYCLSLRFFAYWGQGTLVTVSS VL: DIVMTQSPDSLAVSLGERATISCKSSQSLLNSGNQKNYLTWYQQKPGQAPKLLIYWASTRESGVPDRFSGSGSGTDFTLTISSLQAEDVAVYYCQNDYSYPLTFGGGTKVEIK
0.243	QP14441442 (antibody, V domains shown) VH: QVQLVQSGAEVKKPGASVKVSCKASGYAFSSYWMNWVRQAPGQGLEWIGQIYPGNGDTTYNGKFKGRVTMTADKSTSTVYMELSSLRSEDTAVYYCARFVKGNAMDYWGQGTLVTVSS VL: DIVMTQSPDSLAVSLGERATISCKSSQSLLNSGNQKNYLTWYQQKPGQPPKMLIYWASTRESGVPDRFSGSGSGIDFTLTISSVQAEDVAVYYCQNAYSYPFTFGQGTKLEIK
0.246	QP14561455 (antibody, V domains shown) VH: QVQLVQSGAEVKKPGASVKVSCKASGYTFTNYFVHWVRQAPGQGLEWMGYINPYNDDTKYNEKFKGRVTMTRDTSTSTVYMELSSLRSEDTAVYYCLSLRFFAYWGQGTLVTVSS VL: DIVMTQSPDSLAVSLGERATISCKSSQSLLNSGNQKNYLTWYQQKPGQAPKLLIYWASTRESGVPDRFIGSGSGTDFTLTISSVQAEDVAVYFCQNDYSYPLTFGGGTKVEIK
0.159	QP14431441 (antibody, V domains shown) VH: QVQLVQSGAEVKKPGASVKVSCKASGYAFSSYWMNWVRQAPGQGLEWMGQIYPGNGDTTYNGKFKGRVTMTRDTSTSTVYMELSSLRSEDTAVYYCARFVKGNAMDYWGQGTLVTVSS VL: DIVMTQSPDSLAVSLGERATISCKSSQSLLNSGNQKNYLTWYQQKPGQPPKLLIYWASTRESGVPDRFSGSGSGIDFTLTISSVQAEDVAVYYCQNAYSYPFTFGQGTKLEIK
0.389	QP14561452 (antibody, V domains shown) VH: QVQLVQSGAEVKKPGASVKVSCKASGYTFTNYFVHWVRQAPGQGLEWMGYINPYNDDTKYNEKFKGRVTMTRDTSTSTVYMELSSLRSEDTAVYYCLSLRFFAYWGQGTLVTVSS VL: DIVMTQSPDSLAVSLGERATINCKSSQSLLNSGNQKNYLTWYQQKPGQPPKLLIYWASTRESGVPDRFSGSGSGTDFTLTISSLQAEDVAVYYCQNDYSYPLTFGGGTKVEIK
0.109	QP14441439 (antibody, V domains shown) VH: QVQLVQSGAEVKKPGASVKVSCKASGYAFSSYWMNWVRQAPGQGLEWIGQIYPGNGDTTYNGKFKGRVTMTADKSTSTVYMELSSLRSEDTAVYYCARFVKGNAMDYWGQGTLVTVSS VL: DIVMTQSPDSLAVSLGERATINCKSSQSLLNSGNQKNYLTWYQQKPGQPPKLLIYWASTRESGVPDRFSGSGSGTDFTLTISSLQAEDVAVYYCQNAYSYPFTFGQGTKLEIK
0.279	QP14581452 (antibody, V domains shown) VH: QVQLVQSGAEVKKPGASVKVSCKASGYTFTNYFVHWVKQAPGQGLEWIGYINPYNDDTKYNEKFKGKATLTRDTSTSTVYMELSSLRSEDTAVYYCLSLRFFAYWGQGTLVTVSS VL: DIVMTQSPDSLAVSLGERATINCKSSQSLLNSGNQKNYLTWYQQKPGQPPKLLIYWASTRESGVPDRFSGSGSGTDFTLTISSLQAEDVAVYYCQNDYSYPLTFGGGTKVEIK
0.134	QP14451441 (antibody, V domains shown) VH: QVQLVQSGAEVKKPGASVKVSCKASGYAFSSYWMNWVRQAPGQGLEWIGQIYPGNGDTTYNGKFKGRVTMTADKSTSTVYMELSSLRSEDTAVYFCARFVKGNAMDYWGQGTLVTVSS VL: DIVMTQSPDSLAVSLGERATISCKSSQSLLNSGNQKNYLTWYQQKPGQPPKLLIYWASTRESGVPDRFSGSGSGIDFTLTISSVQAEDVAVYYCQNAYSYPFTFGQGTKLEIK
0.242	QP14571452 (antibody, V domains shown) VH: QVQLVQSGAEVKKPGASVKVSCKASGYTFTNYFVHWVRQAPGQGLEWIGYINPYNDDTKYNEKFKGRVTLTRDTSTSTVYMELSSLRSEDTAVYYCLSLRFFAYWGQGTLVTVSS VL: DIVMTQSPDSLAVSLGERATINCKSSQSLLNSGNQKNYLTWYQQKPGQPPKLLIYWASTRESGVPDRFSGSGSGTDFTLTISSLQAEDVAVYYCQNDYSYPLTFGGGTKVEIK
0.086	QP14441440 (antibody, V domains shown) VH: QVQLVQSGAEVKKPGASVKVSCKASGYAFSSYWMNWVRQAPGQGLEWIGQIYPGNGDTTYNGKFKGRVTMTADKSTSTVYMELSSLRSEDTAVYYCARFVKGNAMDYWGQGTLVTVSS VL: DIVMTQSPDSLAVSLGERATISCKSSQSLLNSGNQKNYLTWYQQKPGQPPKLLIYWASTRESGVPDRFSGSGSGTDFTLTISSLQAEDVAVYYCQNAYSYPFTFGQGTKLEIK
0.796	QP14571453 (antibody, V domains shown) VH: QVQLVQSGAEVKKPGASVKVSCKASGYTFTNYFVHWVRQAPGQGLEWIGYINPYNDDTKYNEKFKGRVTLTRDTSTSTVYMELSSLRSEDTAVYYCLSLRFFAYWGQGTLVTVSS VL: DIVMTQSPDSLAVSLGERATISCKSSQSLLNSGNQKNYLTWYQQKPGQAPKLLIYWASTRESGVPDRFSGSGSGTDFTLTISSLQAEDVAVYYCQNDYSYPLTFGGGTKVEIK
0.265	QP14571455 (antibody, V domains shown) VH: QVQLVQSGAEVKKPGASVKVSCKASGYTFTNYFVHWVRQAPGQGLEWIGYINPYNDDTKYNEKFKGRVTLTRDTSTSTVYMELSSLRSEDTAVYYCLSLRFFAYWGQGTLVTVSS VL: DIVMTQSPDSLAVSLGERATISCKSSQSLLNSGNQKNYLTWYQQKPGQAPKLLIYWASTRESGVPDRFIGSGSGTDFTLTISSVQAEDVAVYFCQNDYSYPLTFGGGTKVEIK
0.357	QP14571454 (antibody, V domains shown) VH: QVQLVQSGAEVKKPGASVKVSCKASGYTFTNYFVHWVRQAPGQGLEWIGYINPYNDDTKYNEKFKGRVTLTRDTSTSTVYMELSSLRSEDTAVYYCLSLRFFAYWGQGTLVTVSS VL: DIVMTQSPDSLAVSLGERATISCKSSQSLLNSGNQKNYLTWYQQKPGQAPKLLIYWASTRESGVPDRFSGSGSGTDFTLTISSVQAEDVAVYFCQNDYSYPLTFGGGTKVEIK

molecular target: T1, Claudin 18.2 (CLDN18.2), expressed on …; test: cell ELISA; remark: another data set of the same source

EC50 [µg/mL]	Binder
0.243	QP199200 (antibody, V domains shown) VH: DVQLVESGGGLVQPGGSRKLSCAASGFTFSSFGMHWVRQAPEKGLEWVAYISSGSNSIYYVDTVKGRFTISRDNPKNTLFLQMTSLKSEDTAMYYCARNAYYGNSFDYWGQGTTLTVSS VL: DIVMTQSPSSLTVTAGEKVTMSCKSSQSLLNSGNQKNYLTWYQQKPGQPPKLLIYWASTRESGVPDRFTGSGSGTVFTLTISSVQAEDLAVYFCQNNYYYPLTFGAGTKLELK
0.119	QP14651462 (antibody, V domains shown) VH: EVQLVQSGAEVKKPGASVKVSCKASGYTFTSYIMHWVRQAPGQGLEWIGYINPYNDGTKYNEKFKGRVTLTSDKSTSTVYMELSSLRSEDTAVYYCARLGFTTRNAMDYWGQGTLVTVSS VL: DIVMTQSPDSLAVSLGERATINCKSSQSLLNSGNQKNYLAWYQQKPGQPPKLLIYGASTRESGVPDRFTGSGSGTDFTLTISSVQAEDVAVYYCQNDHSYPFTFGQGTKLEIK
0.158	QP14491446 (antibody, V domains shown) VH: EVQLVESGGGLVQPGGSLRLSCAASGFTFSSFGMHWVRQAPGKGLEWVSYISSGSNSIYYVDTVKGRFTISRDNAKNSLYLQMNSLRDEDTAVYYCARNAYYGNSFDYWGQGTLVTVSS VL: DIVMTQSPDSLAVSLGERATINCKSSQSLLNSGNQKNYLTWYQQKPGQPPKLLIYWASTRESGVPDRFSGSGSGTDFTLTISSLQAEDVAVYYCQNNYYYPLTFGGGTKVEIK
